Laboratory results taken from publication PMC10238739, “Interaction with single-stranded DNA-binding protein modulates Escherichia coli RadD DNA repair activities” (The Journal of Biological Chemistry, 2023).

What was measured:
[1] = target: Escherichia coli single-stranded DNA-binding protein (SSB), full-length (E. coli, UniProt P0AGE0 1-178); assay: cell-based or functional assay
[2] = target: FAM labeled SSB C-terminal peptide … (E. coli); assay: fluorescence polarisation; fluorescence anisotropy; 10 nM 5-FAM SSB C-terminal peptide, RadD or variant titrated up to 30 μM; 25 mM Tris-acetate pH 7.5, 200 mM potassium glutamate, 10 mM magnesium acetate, 1 mM DTT, 0.1 μg/ml BSA; 15 min at room temperature; apparent KD, one-site fit
[3] = substrate: Nc1ncnc2c1ncn2[C@@H]1O[C@H](COP(=O)(O)OP(=O)(O)OP(=O)(O)O)[C@@H](O)[C@H]1O; assay: coupled spectrophotometric ATPase assay (NADH oxidation); assay type: biochemical, Escherichia coli; settings: no SSB, no DNA, 200 nM RadD, 10 mM Mg acetate, 200 mM K glutamate, pH 7.5, 37 °C
Source text: coupled spectrophotometric ATPase assay (NADH oxidation) on RadD

Sequence of Escherichia coli single-stranded DNA-binding protein (SSB), full-length (P0AGE0 whole entry): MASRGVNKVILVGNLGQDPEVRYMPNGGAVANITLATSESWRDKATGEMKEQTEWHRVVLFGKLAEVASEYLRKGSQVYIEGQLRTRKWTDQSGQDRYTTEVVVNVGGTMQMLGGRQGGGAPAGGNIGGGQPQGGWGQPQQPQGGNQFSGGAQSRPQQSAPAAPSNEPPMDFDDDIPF

| Binder | ATPase rate of 200 nM RadD on titration of SSB from 0 to 40 μM [1] [fold] | Kd [2] [µM] | Km [3] [µM] | Vmax [3] [µM/min] |
| --- | --- | --- | --- | --- |
| Escherichia coli RadD, wild type (enzyme, E. coli) MIFTLRPYQQEAVDATLNHFRRHKTPAVIVLPTGAGKSLVIAELARLARGRVLVLAHVKELVAQNHAKYQALGLEADIFAAGLKRKESHGKVVFGSVQSVARNLDAFQGEFSLLIVDECHRIGDDEESQYQQILTHLTKVNPHLRLLGLTATPFRLGKGWIYQFHYHGMVRGDEKALFRDCIYELPLRYMIKHGYLTPPERLDMPVVQYDFSRLQAQSNGLFSEADLNRELKKQQRITPHIISQIMEFAATRKGVMIFAATVEHAKEIVGLLPAEDAALITGDTPGAERDVLIENFKAQRFRYLVNVAVLTTGFDAPHVDLIAILRPTESVSLYQQIVGRGLRLAPGKTDCLILDYAGNPHDLYAPEVGTPKGKSDNVPVQVFCPACGFANTFWGKTTADGTLIEHFGRRCQGWFEDDDGHREQCDFRFRFKNCPQCNAENDIAARRCRECDTVLVDPDDMLKAALRLKDALVLRCSGMSLQHGHDEKGEWLKITYYDEDGADVSERFRLQTPAQRTAFEQLFIRPHTRTPGIPLRWITAADILAQQALLRHPDFVVARMKGQYWQVREKVFDYEGRFRLAHELRG | ~3 | 5.4 |  |  |
| RadD (Escherichia coli K-12; R21E) (protein, full-length, untagged; expressed from plasmid pEAW724 in E. coli STL2669/pT7pol26; conventional chromatography) MIFTLRPYQQEAVDATLNHFERHKTPAVIVLPTGAGKSLVIAELARLARGRVLVLAHVKELVAQNHAKYQALGLEADIFAAGLKRKESHGKVVFGSVQSVARNLDAFQGEFSLLIVDECHRIGDDEESQYQQILTHLTKVNPHLRLLGLTATPFRLGKGWIYQFHYHGMVRGDEKALFRDCIYELPLRYMIKHGYLTPPERLDMPVVQYDFSRLQAQSNGLFSEADLNRELKKQQRITPHIISQIMEFAATRKGVMIFAATVEHAKEIVGLLPAEDAALITGDTPGAERDVLIENFKAQRFRYLVNVAVLTTGFDAPHVDLIAILRPTESVSLYQQIVGRGLRLAPGKTDCLILDYAGNPHDLYAPEVGTPKGKSDNVPVQVFCPACGFANTFWGKTTADGTLIEHFGRRCQGWFEDDDGHREQCDFRFRFKNCPQCNAENDIAARRCRECDTVLVDPDDMLKAALRLKDALVLRCSGMSLQHGHDEKGEWLKITYYDEDGADVSERFRLQTPAQRTAFEQLFIRPHTRTPGIPLRWITAADILAQQALLRHPDFVVARMKGQYWQVREKVFDYEGRFRLAHELRG |  |  | 654 ± 52 | 42.3 |
| RadD R145E (enzyme) MIFTLRPYQQEAVDATLNHFRRHKTPAVIVLPTGAGKSLVIAELARLARGRVLVLAHVKELVAQNHAKYQALGLEADIFAAGLKRKESHGKVVFGSVQSVARNLDAFQGEFSLLIVDECHRIGDDEESQYQQILTHLTKVNPHLELLGLTATPFRLGKGWIYQFHYHGMVRGDEKALFRDCIYELPLRYMIKHGYLTPPERLDMPVVQYDFSRLQAQSNGLFSEADLNRELKKQQRITPHIISQIMEFAATRKGVMIFAATVEHAKEIVGLLPAEDAALITGDTPGAERDVLIENFKAQRFRYLVNVAVLTTGFDAPHVDLIAILRPTESVSLYQQIVGRGLRLAPGKTDCLILDYAGNPHDLYAPEVGTPKGKSDNVPVQVFCPACGFANTFWGKTTADGTLIEHFGRRCQGWFEDDDGHREQCDFRFRFKNCPQCNAENDIAARRCRECDTVLVDPDDMLKAALRLKDALVLRCSGMSLQHGHDEKGEWLKITYYDEDGADVSERFRLQTPAQRTAFEQLFIRPHTRTPGIPLRWITAADILAQQALLRHPDFVVARMKGQYWQVREKVFDYEGRFRLAHELRG |  | > 30 |  |  |
| RadD R21E (enzyme) MIFTLRPYQQEAVDATLNHFERHKTPAVIVLPTGAGKSLVIAELARLARGRVLVLAHVKELVAQNHAKYQALGLEADIFAAGLKRKESHGKVVFGSVQSVARNLDAFQGEFSLLIVDECHRIGDDEESQYQQILTHLTKVNPHLRLLGLTATPFRLGKGWIYQFHYHGMVRGDEKALFRDCIYELPLRYMIKHGYLTPPERLDMPVVQYDFSRLQAQSNGLFSEADLNRELKKQQRITPHIISQIMEFAATRKGVMIFAATVEHAKEIVGLLPAEDAALITGDTPGAERDVLIENFKAQRFRYLVNVAVLTTGFDAPHVDLIAILRPTESVSLYQQIVGRGLRLAPGKTDCLILDYAGNPHDLYAPEVGTPKGKSDNVPVQVFCPACGFANTFWGKTTADGTLIEHFGRRCQGWFEDDDGHREQCDFRFRFKNCPQCNAENDIAARRCRECDTVLVDPDDMLKAALRLKDALVLRCSGMSLQHGHDEKGEWLKITYYDEDGADVSERFRLQTPAQRTAFEQLFIRPHTRTPGIPLRWITAADILAQQALLRHPDFVVARMKGQYWQVREKVFDYEGRFRLAHELRG |  | > 30 |  |  |
| RadD R49E (enzyme) MIFTLRPYQQEAVDATLNHFRRHKTPAVIVLPTGAGKSLVIAELARLAEGRVLVLAHVKELVAQNHAKYQALGLEADIFAAGLKRKESHGKVVFGSVQSVARNLDAFQGEFSLLIVDECHRIGDDEESQYQQILTHLTKVNPHLRLLGLTATPFRLGKGWIYQFHYHGMVRGDEKALFRDCIYELPLRYMIKHGYLTPPERLDMPVVQYDFSRLQAQSNGLFSEADLNRELKKQQRITPHIISQIMEFAATRKGVMIFAATVEHAKEIVGLLPAEDAALITGDTPGAERDVLIENFKAQRFRYLVNVAVLTTGFDAPHVDLIAILRPTESVSLYQQIVGRGLRLAPGKTDCLILDYAGNPHDLYAPEVGTPKGKSDNVPVQVFCPACGFANTFWGKTTADGTLIEHFGRRCQGWFEDDDGHREQCDFRFRFKNCPQCNAENDIAARRCRECDTVLVDPDDMLKAALRLKDALVLRCSGMSLQHGHDEKGEWLKITYYDEDGADVSERFRLQTPAQRTAFEQLFIRPHTRTPGIPLRWITAADILAQQALLRHPDFVVARMKGQYWQVREKVFDYEGRFRLAHELRG |  | > 30 |  |  |
| RadD (Escherichia coli K-12) (protein, full-length, untagged; expressed from plasmid pEAW724 in E. coli STL2669/pT7pol26; conventional chromatography) MIFTLRPYQQEAVDATLNHFRRHKTPAVIVLPTGAGKSLVIAELARLARGRVLVLAHVKELVAQNHAKYQALGLEADIFAAGLKRKESHGKVVFGSVQSVARNLDAFQGEFSLLIVDECHRIGDDEESQYQQILTHLTKVNPHLRLLGLTATPFRLGKGWIYQFHYHGMVRGDEKALFRDCIYELPLRYMIKHGYLTPPERLDMPVVQYDFSRLQAQSNGLFSEADLNRELKKQQRITPHIISQIMEFAATRKGVMIFAATVEHAKEIVGLLPAEDAALITGDTPGAERDVLIENFKAQRFRYLVNVAVLTTGFDAPHVDLIAILRPTESVSLYQQIVGRGLRLAPGKTDCLILDYAGNPHDLYAPEVGTPKGKSDNVPVQVFCPACGFANTFWGKTTADGTLIEHFGRRCQGWFEDDDGHREQCDFRFRFKNCPQCNAENDIAARRCRECDTVLVDPDDMLKAALRLKDALVLRCSGMSLQHGHDEKGEWLKITYYDEDGADVSERFRLQTPAQRTAFEQLFIRPHTRTPGIPLRWITAADILAQQALLRHPDFVVARMKGQYWQVREKVFDYEGRFRLAHELRG |  |  | 640 ± 76 | 29.4 |
| RadD (Escherichia coli K-12; R49E) (protein, full-length, untagged; expressed from plasmid pEAW724 in E. coli STL2669/pT7pol26; conventional chromatography) MIFTLRPYQQEAVDATLNHFRRHKTPAVIVLPTGAGKSLVIAELARLAEGRVLVLAHVKELVAQNHAKYQALGLEADIFAAGLKRKESHGKVVFGSVQSVARNLDAFQGEFSLLIVDECHRIGDDEESQYQQILTHLTKVNPHLRLLGLTATPFRLGKGWIYQFHYHGMVRGDEKALFRDCIYELPLRYMIKHGYLTPPERLDMPVVQYDFSRLQAQSNGLFSEADLNRELKKQQRITPHIISQIMEFAATRKGVMIFAATVEHAKEIVGLLPAEDAALITGDTPGAERDVLIENFKAQRFRYLVNVAVLTTGFDAPHVDLIAILRPTESVSLYQQIVGRGLRLAPGKTDCLILDYAGNPHDLYAPEVGTPKGKSDNVPVQVFCPACGFANTFWGKTTADGTLIEHFGRRCQGWFEDDDGHREQCDFRFRFKNCPQCNAENDIAARRCRECDTVLVDPDDMLKAALRLKDALVLRCSGMSLQHGHDEKGEWLKITYYDEDGADVSERFRLQTPAQRTAFEQLFIRPHTRTPGIPLRWITAADILAQQALLRHPDFVVARMKGQYWQVREKVFDYEGRFRLAHELRG |  |  | 464 ± 44 | 51 |
| RadD (Escherichia coli K-12; R145E) (protein, full-length, untagged; expressed from plasmid pEAW724 in E. coli STL2669/pT7pol26; conventional chromatography) MIFTLRPYQQEAVDATLNHFRRHKTPAVIVLPTGAGKSLVIAELARLARGRVLVLAHVKELVAQNHAKYQALGLEADIFAAGLKRKESHGKVVFGSVQSVARNLDAFQGEFSLLIVDECHRIGDDEESQYQQILTHLTKVNPHLELLGLTATPFRLGKGWIYQFHYHGMVRGDEKALFRDCIYELPLRYMIKHGYLTPPERLDMPVVQYDFSRLQAQSNGLFSEADLNRELKKQQRITPHIISQIMEFAATRKGVMIFAATVEHAKEIVGLLPAEDAALITGDTPGAERDVLIENFKAQRFRYLVNVAVLTTGFDAPHVDLIAILRPTESVSLYQQIVGRGLRLAPGKTDCLILDYAGNPHDLYAPEVGTPKGKSDNVPVQVFCPACGFANTFWGKTTADGTLIEHFGRRCQGWFEDDDGHREQCDFRFRFKNCPQCNAENDIAARRCRECDTVLVDPDDMLKAALRLKDALVLRCSGMSLQHGHDEKGEWLKITYYDEDGADVSERFRLQTPAQRTAFEQLFIRPHTRTPGIPLRWITAADILAQQALLRHPDFVVARMKGQYWQVREKVFDYEGRFRLAHELRG |  |  | 698 ± 75 | 28.4 |
